B1: NOS1 WT (dsDNA)
DNA 1: TGTTTCCTGATAGAAAAAAAAAATGG
DNA 2: CCATTTTTTTTTTCTATCAGGAAACA
B2: ASCL3 WT (dsDNA)
DNA 1: TCGAAAAATAAAATAAAATAAAACAT
DNA 2: ATGTTTTATTTTATTTTATTTTTCGA
B3: GRIN1 WT (dsDNA)
DNA 1: TGGAGGGGGACAAAGACAGGGTGGTG
DNA 2: CACCACCCTGTCTTTGTCCCCCTCCA
B4: NOS1 -27G>A (rs1195040887) (dsDNA)
DNA 1: TGTTTCCTGATAAAAAAAAAAAATGG
DNA 2: CCATTTTTTTTTTTTATCAGGAAACA
B5: GRIN1 -34G>A (rs1402667001) (dsDNA)
DNA 1: TGGAGGAGGACAAAGACAGGGTGGTG
DNA 2: CACCACCCTGTCTTTGTCCTCCTCCA

What follows are molecules tested against TATA-binding protein (TBP) (Homo sapiens) (UniProt P20226) (assay: EMSA (kinetic, kd/ka)). Settings: 20 mM HEPES-KOH pH 7.6, 5 mM MgCl2, 70 mM KCl, 1 mM DTT, 100 ug/ml BSA, 0.01% NP-40, 5% 'XYZ' (so in the source), 25 C; TBP 0.4 nM; gel 5% PAGE Tris-glycine pH 8.3 ….
Chain of TATA-binding protein (TBP) (Homo sapiens) (P20226 whole entry): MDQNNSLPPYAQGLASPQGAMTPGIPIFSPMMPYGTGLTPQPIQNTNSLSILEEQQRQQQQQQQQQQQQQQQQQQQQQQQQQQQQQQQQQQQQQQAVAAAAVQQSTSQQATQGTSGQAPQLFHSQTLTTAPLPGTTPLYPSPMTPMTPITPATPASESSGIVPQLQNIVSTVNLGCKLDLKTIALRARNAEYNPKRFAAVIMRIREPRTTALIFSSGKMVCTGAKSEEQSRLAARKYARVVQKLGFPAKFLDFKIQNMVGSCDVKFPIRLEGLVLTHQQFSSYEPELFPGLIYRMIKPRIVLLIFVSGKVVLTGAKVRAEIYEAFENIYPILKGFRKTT

| Molecule | Kd [nM] |
| --- | --- |
| TCGAAAAATAAAACAAAATAAAACAT (double strand) [ASCL3 -45T>C (rs1049743008)] | 17 |

These molecules were tested against TATA-binding protein (TBP) (Homo sapiens, UniProt P20226 1-339) (assay: EMSA (kinetic, kd/ka); 20 mM HEPES-KOH pH 7.6, 5 mM MgCl2, 70 mM KCl, 1 mM DTT, 100 ug/ml BSA, 0.01% NP-40, 5% 'XYZ' (so in the source), 25 C; TBP 0.4 nM; gel 5% PAGE Tris-glycine pH 8.3, 10 C). Settings: protein: recombinant; label: 32P; blunt.
Chain of TATA-binding protein (TBP) (P20226 whole entry): as the sequence (P20226 whole entry) above

| Molecule | Kd [nM] |
| --- | --- |
| B1 | 70 ± 20 |
| B2 | 12 ± 5 |
| B3 | 320 ± 50 |
| B4 | 59 ± 9 |
| B5 | 200 ± 50 |
